Assay results from patent US20260226143A1.

Target: soluble Aβ oligomers (human)
Experiment: cell-based or functional assay

human IgG isotype control antibody
Mean (Aβ spots per neuron), Isotype Control 1:50 (Aβ spots per neuron): 58.7
